Experiments:
[1] = target: T1, His6-Cdc42 (S. cerevisiae, UniProt P19073 1-191); assay: pull-down; GST-Gic2N (a.a.1–155) on glutathione Sepharose (20 μg), His6-Cdc42 or mutant (10 μg) in the presence of GTPγS; bound protein detected with anti-Hisx6 antibody; conditions: both partners purified
T1 construct: Cdc42, small GTPase, S. cerevisiae; also called Hisx6-Cdc42; Cdc42 wild type; source: bacteria, purified (Hisx6 fusion)

[2] = target: T2, His6-cdc42-302 (V36A F37A) (S. cerevisiae, UniProt P19073 1-191, V36A | F37A); assay: as above; conditions: both partners purified
T2 construct: Cdc42, S. cerevisiae, with V36A and F37A; source: bacteria, purified (Hisx6 fusion)
T2 sequence (P19073 whole entry V36A/F37A, the tested form may be a part): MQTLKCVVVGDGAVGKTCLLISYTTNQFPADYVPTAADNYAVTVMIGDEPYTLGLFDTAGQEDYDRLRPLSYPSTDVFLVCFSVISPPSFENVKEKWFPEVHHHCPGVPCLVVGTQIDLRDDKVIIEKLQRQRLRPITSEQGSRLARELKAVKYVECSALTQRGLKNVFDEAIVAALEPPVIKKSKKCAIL

T1 sequence (P19073 whole entry, the tested form may be a part): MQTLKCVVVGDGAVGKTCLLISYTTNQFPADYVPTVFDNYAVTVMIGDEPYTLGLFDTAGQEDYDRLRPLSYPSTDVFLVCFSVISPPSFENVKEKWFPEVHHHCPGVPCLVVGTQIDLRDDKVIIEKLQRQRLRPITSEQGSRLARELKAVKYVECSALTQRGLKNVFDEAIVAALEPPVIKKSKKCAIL

binding result [1]: binds | binding result [2]: binds
B1: GST-tagged Gic2N (amino acids 1–155) (domain or fragment, S. cerevisiae (budding yeast), UniProt Q06648 1-155, looked up)
chain: MTSASITNTGNETMNLPQMRSIWLDEDEEAEKLYGLQAQQFMGSDDEENLGITFINSDKPVLSNKKNIELPPLSPNSHPSCHHRRSNSNSAKSKESSSSSSSANKTNHKKVFLKLNLLKKKLLGAQPDIRGKGISTPFDFQHISHADTRNGFQDE
notes: also called GST-Gic2N; GST-Gic2; source: GST fusion protein, purified and conjugated to glutathione Sepharose

From PMC6449940, “The Cdc42 effectors Gic1 and Gic2 regulate polarized post-Golgi secretion” (Cell & Bioscience, 2019)
